This note sets out measurements from article PMC3941021 (Nature structural & molecular biology, 2013).

Like-named read-outs stand apart in the source and are kept apart here.

What all share (assay): crystal structure
In experiment [1] the target is lysine-methylated EphA4 ectodomain (EphA4_(ecto)), human (human, UniProt P54764 20-547, lysine-methylated).
Experiment [2] concerns the target T1, EphA4 ectodomain (EphA4_(ecto)), human (human, UniProt P54764 20-547).
For experiment [3], the target named is T1, EphA4 ectodomain (EphA4_(ecto)), human. The source holds these as a separate data set.

T1 sequence (P54764 20-547): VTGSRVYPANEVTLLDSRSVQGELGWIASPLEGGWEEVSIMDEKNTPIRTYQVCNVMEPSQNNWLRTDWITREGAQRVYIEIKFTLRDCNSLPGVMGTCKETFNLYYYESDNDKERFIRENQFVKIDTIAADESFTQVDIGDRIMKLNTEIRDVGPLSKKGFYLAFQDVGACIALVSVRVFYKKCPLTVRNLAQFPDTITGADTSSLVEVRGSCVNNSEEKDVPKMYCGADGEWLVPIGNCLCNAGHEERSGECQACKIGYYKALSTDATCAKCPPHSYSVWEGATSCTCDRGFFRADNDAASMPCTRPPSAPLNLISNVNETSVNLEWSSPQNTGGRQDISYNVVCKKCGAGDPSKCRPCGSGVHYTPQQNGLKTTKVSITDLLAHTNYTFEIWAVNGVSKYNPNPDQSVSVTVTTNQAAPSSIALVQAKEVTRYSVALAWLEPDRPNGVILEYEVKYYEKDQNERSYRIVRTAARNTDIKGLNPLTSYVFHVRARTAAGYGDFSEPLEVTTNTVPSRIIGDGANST
lysine-methylated EphA4 ectodomain (EphA4_(ecto)), human, sequence (P54764 20-547): as above

B1: ephrinA5 receptor-binding domain (RBD), human, of the lysine-methylated complex sample (domain or fragment)
chain: AVADRYAVYWNSSNPRFQRGDYHIDVCINDYLDVFCPHYEDSVPEDKTERYVLYMVNFDGYSACDHTSKGFKRWECNRPHSPNGPLKFSEKFQLFTPFSLGFEFRPGREYFYISSAIPDNGRRSCLKLKVFVRPTNSCMK
modifications: lysine-methylated (the paper calls the EphA4_(ecto)-ephrinA5 RBD complex sample lysine-methylated)
With B1, in experiment [1], the binding result is reported as “binds”.

B2: ephrinA5 receptor-binding domain (RBD), human (domain or fragment)
chain: B1 chain
Take B2: in experiment [2], the binding result is recorded as “binds”.

B3: ephrinB3 receptor-binding domain (RBD), human (domain or fragment)
chain: GLSLEPVYWNSANKRFQAEGGYVLYPQIGDRLDLLCPRARPPGPHSSPNYEFYKLYLVGGAQGRRCEAPPAPNLLLTCDRPDLDLRFTIKFQEYSPNLWGHEFRSHHDYYIIATSDGTREGLESLQGGVCLTRGMKVLLRVGQ
Turning to B3, the binding result in experiment [3] is “binds”.
